Experimental data: the supplement of paper PMC12764529
± gives the half width of the 95% confidence interval.

Assays:
[1] = folding stability dG unfold from trypsin proteolysis; higher = more stable
Summary of the method: (§1)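 Designed mini-proteins with no cysteine and under 80 residues were kept only if AlphaFold2 dimer inter-PAE was above 15. In a PA-tagged cDNA display construct, they were digested with trypsin and chymotrypsin and then sequenced. K50 was inferred by Bayesian fitting of counts, and unfolding free energy was derived per protease or combined against a sequence-predicted unfolded-state K50 and a shared folded-state K50.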

[2] = folding stability dG unfold from chymotrypsin proteolysis; higher = more stable
Summary of the method: as §1

[3] = folding stability dG unfold (combined trypsin and chymotrypsin); higher = more stable
Summary of the method: as §1

Sequence	folding stability dG unfold [1] [kcal/mol]	folding stability dG unfold [2] [kcal/mol]	folding stability dG unfold [3] [kcal/mol]
SAGGSASIEIPFNGHPYKIEIDDVEPPDEQYRAKAEIRFPGNGKKIPVEGDMPKSDAEDAIKEAIRSAGGSA [r15_944_TrROS]	-0.527 ± 0.19	0.49 ± 0.16	0.362 ± 0.25
SAGGSASIPEKIAEELKEKYGVTEIKILSVDPNGIIKVELKSIEKNEGKLIEKTYKVTVKVPKNLLSAGGSA [r15_646_JUSTAS]	1.86 ± 0.071	2.23 ± 0.034	2.14 ± 0.078
SAGGSASLTVVYPGGETRTFDVSAVSPEFLRAHPDVTVTLPGGEERRLAGDTELSPAGPHTITVPASAGGSA [r15_733_JUSTAS]	2.39 ± 0.11	1.8 ± 0.083	2.06 ± 0.088
SAGGSASMIVKEVKDKVDPAGSVPPDAVIRLETKVDPATGVWTIKVYTEEGKEIGESTVFVKPGILSAGGSA [r15_134_JUSTAS]	0.447 ± 0.054	0.629 ± 0.083	0.602 ± 0.069
SAGGSASMTLYRDEEGKPLFHHSPEPTSSVPRVVPVVNEEGDEKLEIEIPADTPLEELEAIIEELLSAGGSA [r15_309_JUSTAS]	0.0733 ± 0.04	-0.33 ± 0.18	-0.0861 ± 0.096
SAGGSASPFYIAYDPNKPNVATIYPSSQPNLSGSNGATVTPLTDEAELAALKAELKAAGITTITFSSAGGSA [r15_1004_JUSTAS]	0.834 ± 0.054	0.355 ± 0.22	0.65 ± 0.11
SAGGSASPSEVRTITATLPGGVVREFEVKMPPGTTVYIPEEGKTITVPPDSSLPLPPDVSVEVRLESAGGSA [r15_152_JUSTAS]	-0.353 ± 0.017	-0.106 ± 0.021	-0.148 ± 0.058
SAGGSASPVFVATRISLPGGNASVDTSRYDPSSGTLTITVTLPDGTTTTITLTGPVSEYPADRLLLSAGGSA [r15_596_JUSTAS]	1.04 ± 0.022	1.16 ± 0.051	1.13 ± 0.061
SAGGSASPVTVTYTDPNSTVLESVYTPSSGIVYVKYKVGDKWYLVTVKLDPSGSSVSSVTKEPLPPSAGGSA [r15_297_JUSTAS]	1.55 ± 0.04	2.13 ± 0.041	1.95 ± 0.043
SAGGSASSPGTPVKLNVNAIITKKLPDGTITTEPGRTLDLPEEEAIEYLKSLPSSYSVEIESIVVESAGGSA [r15_833_JUSTAS]	-0.347 ± 0.15	0.0371 ± 0.15	-0.115 ± 0.087
SAGGSASSSEKIRITYLKDGVEYEVTFPLVELVTDPNTGVTTVTLPPEFKELFPGPITVTEVEIPPSAGGSA [r15_710_JUSTAS]	1.42 ± 0.035	2.267 ± 0.019	1.99 ± 0.032
SAGGSASSVPVELEYETPGDPSSSSYTLEPVDLPPELASRIVEVTAKVEKEGGKLKITATVTLTDLSAGGSA [r15_321_JUSTAS]	0.723 ± 0.12	0.137 ± 0.25	0.48 ± 0.2
SAGGSASTLRLIVIPPSYPNMTIEEAIKNIKIKRPDGKEFEVEVLEVIPVKDYRLLLVRIKDPIPYSAGGSA [r15_331_TrMRF]	2.32 ± 0.058	2.46 ± 0.071	2.43 ± 0.14
SAGGSASTPDGKTKTYTNTNPGATEEEVKPIAEEIAKEIAEKLGLDLSEIGISVSYDPNTGTISPLIGSAGG [r13_913_JUSTAS]	-0.00514 ± 0.061	-0.321 ± 0.49	-0.105 ± 0.59
SAGGSASVKIEVTVSPEQPDLTEEEAKAALTLTLPDGRPVKVEVLEVKPVPGSTVLLVEVEENVLLSAGGSA [r15_331_JUSTAS]	1.64 ± 0.061	0.487 ± 0.073	1.13 ± 0.079
SAGGSASVSPVTLPLEVAPDEEVEGTLTLTLPSGPTVTYTAEITEVSPDGTANPVVTIDDTPVVVESAGGSA [r15_844_JUSTAS]	1.39 ± 0.053	0.392 ± 0.091	0.965 ± 0.045
SAGGSATAEELAEEIAREIAEAFPAEVVRVEVEEVDEDRVVFRMEVRVPLPDGSTVRAPFTVVVPASAGGSA [r15_276_TrMRF]	0.572 ± 0.042	0.778 ± 0.14	0.693 ± 0.1
SAGGSATITIEVNGKPITIEFDKKNKTYTITLPNGKKVEVKVVDGELYITFANGEKRKISLKELKPSAGGSA [r15_448_TrROS_Hall]	2.68 ± 0.12	4.34 ± 0.15	3.81 ± 0.17
